According to paper PMC2770460, “Karyopherin binding interactions and nuclear import mechanism of nuclear pore complex protein Tpr” (BMC Cell Biology, 2009):

Biological target: His-importin α (human, UniProt P52292 1-529)
Assay: ELISA; solid phase binding assay: Maxisorp microtiter plates coated with 25 ng of Tpr or C-Tpr; increasing concentrations of the soluble protein; bound protein detected with primary antibodies and horseradish peroxidase-conjugated secondary antibodies (TMB); apparent Kd from B = Bmax x Y/(Kd + Y); CRM1, NES and RanGTP at equimolar concentrations
Settings: both partners purified

B1: C-terminal domain of Tpr (C-Tpr, residues 1626-2348) (domain or fragment)
chain: EQRDEPQEPSNKVPEQQRQITLKTTPASGERGIASTSDPPTANIKPTPVVSTPSKVTAAAMAGNKSTPRASIRPMVTPATVTNPTTTPTATVMPTTQVESQEAMQSEGPVEHVPVFGSTSGSVRSTSPNVQPSISQPILTVQQQTQATAFVQPTQQSHPQIEPANQELSSNIVEVVQSSPVERPSTSTAVFGTVSATPSSSLPKRTREEEEDSTIEASDQVSDDTVEMPLPKKLKSVTPVGTEEEVMAEESTDGEVETQVYNQDSQDSIGEGVTQGDYTPMEDSEETSQSLQIDLGPLQSDQQTTTSSQDGQGKGDDVIVIDSDDEEEDDDENDGEHEDYEEDEEDDDDDEDDTGMGDEGEDSNEGTGSADGNDGYEADDAEGGDGTDPGTETEESMGGGEGNHRAADSQNSGEGNTGAAESSFSQEVSREQQPSSASERQAPRAPQSPRRPPHPLPPRLTIHAPPQELGPPVQRIQMTRRQSVGRGLQLTPGIGGMQQHFFDDEDRTVPSTPTLVVPHRTDGFAEAIHSPQVAGVPRFRFGPPEDMPQTSSSHSDLGQLASQGGLGMYETPLFLAHEEESGGRSVPTTPLQVAAPVTVFTESTTSDASEHASQSVPMVTTSTGTLSTTNETATGDDGDEVFVEAESEGISSEAGLEIDSQQEEEPVQASDESDLPSTSQDPPSSSSVDTSSSQPKPFRRVRLQTTLRQGVRGRQFNRQRGVS
Kd: 21.5 nM
